{
  "source": "patent US12366576B2",
  "about": "“Compositions, assays, and methods for direct modulation of fatty acid metabolism” (Dana-Farber Cancer Institute, Inc., priority 2016, dated 2025)",
  "molecular_target": "T1, VLCAD (Homo sapiens, UniProt P49748)",
  "T1 construct": "10x His (N); made in house; host or cells: E. coli BL21(DE3), pET19b",
  "T1 sequence (P49748 40-655)": "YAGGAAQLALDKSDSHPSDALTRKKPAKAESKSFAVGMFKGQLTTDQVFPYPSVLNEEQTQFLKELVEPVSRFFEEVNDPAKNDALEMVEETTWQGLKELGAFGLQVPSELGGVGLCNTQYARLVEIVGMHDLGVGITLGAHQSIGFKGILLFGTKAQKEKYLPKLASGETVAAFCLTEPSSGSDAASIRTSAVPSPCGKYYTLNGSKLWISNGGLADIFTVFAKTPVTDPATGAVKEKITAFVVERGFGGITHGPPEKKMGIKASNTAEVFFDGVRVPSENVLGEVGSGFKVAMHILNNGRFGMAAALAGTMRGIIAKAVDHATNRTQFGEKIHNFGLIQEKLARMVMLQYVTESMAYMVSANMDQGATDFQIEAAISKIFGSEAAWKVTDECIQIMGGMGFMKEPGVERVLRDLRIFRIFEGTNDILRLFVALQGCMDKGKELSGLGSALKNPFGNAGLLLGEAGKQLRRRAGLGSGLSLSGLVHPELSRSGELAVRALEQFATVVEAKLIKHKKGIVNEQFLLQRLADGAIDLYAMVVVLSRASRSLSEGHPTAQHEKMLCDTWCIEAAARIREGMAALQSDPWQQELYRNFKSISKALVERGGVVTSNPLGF",
  "test": "In vitro VLCAD enzymatic activity assay (palmitoyl-CoA, ferrocenium hexafluorophosphate)",
  "format": "biochemical",
  "conditions": "0.75 μM VLCAD pre-incubated overnight at 4° C. with 75 μM SAHB; substrate palmitoyl-CoA",
  "method": "To assess whether the direct MCL-1/VLCAD binding interaction influences VLCAD enzymatic activity, an in vitro enzymatic activity assay was conducted. Recombinant VLCAD was incubated with its substrate (palmitoyl-CoA) and ferrocenium hexafluorophosphate, a strong electrophile. As VLCAD acts upon its substrate and oxidizes it, the ferrocenium hexafluorophosphate is reduced, causing a change in absorbance that is readily measured.\nVLCAD. Mature human VLCAD lacking its cleavable leader sequence (aa 40-655) (NP_000009.1) was subcloned into the pET19b vector (Novagen) using NdeI and XhoI restriction sites. Correct insertion was confirmed by DNA sequencing. […]\nVLCAD enzymatic activity was measured as previously described (see, e.g., Doulias et al., Sci Signal, 6(256):rs1 (2013); Lehman et al., Anal. Biochem., 186(2):280-284 (1990)). […] Where VLCAD activity was assessed in the presence of MCL-1 SAHBs, 0.75 μM VLCAD was incubated overnight at 4° C. with 75 μM SAHB and the protein-peptide mixture was used to initiate the ferrocenium reaction. Decrease in ferrocenium absorbance as a function of time at 300 nm was recorded and the initial velocity (V0) was calculated in units of U/mg using the molar absorptivity of ferrocenium (ε=4.3 mM^−1 cm^−1 at 300 nm) (see, e.g., Izai et al.). […]",
  "note": "Bridge positions count the residues as written; N and C are the ends. Square brackets hold non-standard residues; d marks the D form. Ends that are not written are not given here. S5 = C=CCCC[C@](C)(N)C(=O)O",
  "data": [
    {"substance": "MCL-1 SAHBD: hydrocarbon-stapled peptide mimicking the MCL-1 BH3 domain (Stabilized Alpha-Helix of BCL-2 Domain), SEQ ID NO:19 (RKALETLRRVGDGV[S5]RNH[S5]TAF; staple 15-19)", "values": [
      {"measurement": "effect on VLCAD enzymatic activity", "value": "caused a decrease in enzymatic activity"}
    ]}
  ]
}
